These are literature values, as cited in PMC6746776.

This data set has as its target p63 TAD TAD (Homo sapiens) (UniProt Q9H3D4).

Chain of p300 Taz2 (Q09472 1723-1812): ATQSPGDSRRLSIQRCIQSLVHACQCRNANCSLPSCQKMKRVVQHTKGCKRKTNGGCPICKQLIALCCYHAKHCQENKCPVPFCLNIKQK
Chain of p63 TAD TAD (Homo sapiens) (Q9H3D4 1-107): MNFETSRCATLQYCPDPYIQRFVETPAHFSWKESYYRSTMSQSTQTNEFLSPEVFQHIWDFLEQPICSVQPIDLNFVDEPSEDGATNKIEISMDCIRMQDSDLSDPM

Turning to p300 Taz2 (from UniProt Q09472), the dissociation constant (Kd) is 196 nM.

By Kd is commonly meant the free concentration of one partner at which half of the binding sites on the other are occupied at equilibrium, for simple one-to-one binding.
